{
  "source": "paper PMC9832833",
  "about": "“Mitogen-activated protein kinase 14-mediated phosphorylation of MaMYB4 negatively regulates banana fruit ripening”",
  "key": {"[1]": {"biological_target": "GST-MaMYB4 (Musa acuminata (banana), UniProt A0A804HW33 1-241)", "sequence (A0A804HW33 entry or part of it)": "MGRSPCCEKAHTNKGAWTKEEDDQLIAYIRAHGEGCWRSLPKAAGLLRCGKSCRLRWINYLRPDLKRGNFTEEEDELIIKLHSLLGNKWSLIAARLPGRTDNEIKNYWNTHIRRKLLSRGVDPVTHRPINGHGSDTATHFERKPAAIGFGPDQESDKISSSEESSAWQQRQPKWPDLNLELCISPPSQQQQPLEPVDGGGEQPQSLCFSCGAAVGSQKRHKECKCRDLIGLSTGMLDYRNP", "test": "EMSA; without MBP-MaMPK14; EMSA buffer not stated (kit per cited Fan et al.); kinase preincubation in 20 mM Tris-HCl, 20 mM MgCl2, 100 mM NaCl, 10 mM ATP, 2 mM DTT, 0.5 h at 30 C; pH not", "conditions": "protein: recombinant; tags: GST (N-term, pGEX-4T-1); label: biotin; blunt"}, "[2]": {"biological_target": "T1, MBP-MaMPK14 (Musa acuminata (banana), UniProt A0A804IKS6 1-366)", "T1 sequence": "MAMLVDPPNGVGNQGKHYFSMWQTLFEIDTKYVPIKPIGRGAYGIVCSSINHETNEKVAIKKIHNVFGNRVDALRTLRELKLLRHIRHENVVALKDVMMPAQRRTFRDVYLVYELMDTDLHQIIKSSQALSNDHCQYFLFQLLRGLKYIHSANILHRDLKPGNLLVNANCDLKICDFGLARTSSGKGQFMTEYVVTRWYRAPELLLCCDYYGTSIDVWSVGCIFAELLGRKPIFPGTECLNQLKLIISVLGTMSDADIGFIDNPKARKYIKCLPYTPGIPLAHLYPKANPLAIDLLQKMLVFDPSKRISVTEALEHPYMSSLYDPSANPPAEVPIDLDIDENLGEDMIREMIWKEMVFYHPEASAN", "test": "EMSA; MBP-MaMPK14 alone; EMSA buffer not stated (kit per cited Fan et al.); kinase preincubation in 20 mM Tris-HCl, 20 mM MgCl2, 100 mM NaCl, 10 mM ATP, 2 mM DTT, 0.5 h at 30 C; pH not", "conditions": "protein: recombinant; tags: MBP (N-term, pMAL-c2X); label: biotin; blunt"}},
  "data": [
    {"binder": "MaACS1 promoter probe (dsDNA) DNA 1: CCAAAAACAGGGTAGGTGGATGGCTTACATGCTCACCTAATAATTTATTT DNA 2: AAATAAATTATTAGGTGAGCATGTAAGCCATCCACCTACCCTGTTTTTGG", "values": [
      {"measurement": "binding result", "setting": "[1]", "result": "binds"},
      {"measurement": "binding result", "setting": "[2]", "result": "no binding"}
    ]}
  ]
}
